This note sets out measurements from patent US9074238B2, “Methods for enhancing neprilysin activity and degrading amyloid-beta peptides and oligomers in a subject with Alzheimer's disease” (ACADEMIA SINICA, priority 2011, dated 2015).

Assay [1] deals with NEP. The assay can be described thus: Screening of compounds for NEP activity of SH-SY5Y cells with qf-Aβ(1-7)C substrate. The class given is cell-based, human. Particulars: 5 μM compound, 24 hr; 2 μM qf-Aβ(1-7)C, 1 h. Here is the method: The compound number is indicated on the left of each bar. […] (**, p value<0.001; *, p value<0.01).
Analogs comprising at least three hydroxyl groups attached to the two aromatic rings of the curcumin structure scaffold (Compound 1) were particularly active in enhancing NEP activity.
Human SH-SY5Y cells were cultured in the Dulbecco's modified Eagle's medium (DMEM, Gibco, USA) supplemented with 10% fetal bovine serum (FBS; Biological industries, USA) in 5% CO2 at 37° C. The cells were harvested and re-suspended in the phenol red-free DMEM medium supplemented with 10% FBS at a density of 1×10^6 cells/mL. 100 μL of cell culture was added in each well of a 96-well plate. The compounds (no. 1 to no. 24) were dissolved in DMSO, and the others (no. 25 and no. 26) were dissolved in sterilized water to make the stock solution (1 mM). Each compound was mixed with phenol red-free DMEM supplemented with 10% FBS to a final concentration of 10 μM. 100 μL of the medium containing 10 μM indicated compound was added into the wells to make the final compound concentration 5 μM. After incubation for 24 hr, the medium of the culture was replaced with the phenol red-free DMEM medium (not FBS) containing 2 μM qf-Aβ(1-7)C and incubation continued for additional 1 h. To measure the proteolytic activity, 100 μL of the medium was taken out for fluorescence measurement on SpectraMax Gemini EM (Molecular Devices, USA) with excitation at 346 nm and emission at 442 nm. The average of three replicate wells was used for each sample and control.

Assay [2] has as its target T1, MMP-9 (Homo sapiens, UniProt P14780).
T1 construct: purchased R&D Systems (USA)
The assay can be described thus: Fluorogenic enzyme assay, peptide substrate digested by MMP-9. The class given is biochemical. The note with it: 2 μM substrate, pH 7.5, 37° C. Here is the method:
(§1) Recombinant human NEP (0.5 mg/mL), insulin-degrading enzyme (IDE) (0.386 mg/mL), endothelin-converting enzyme 1 (ECE-1) (0.298 mg/mL), matrix metalloproteinases (MMP)-3 (0.124 mg/mL) and MMP-9 (0.5 mg/mL), and angiotensin-converting enzyme (ACE) (0.434 mg/mL) were purchased from R&D Systems (USA). Human plasmin (1 mM) was purchased from Sigma (USA). […] MMP-3 and MMP-9 were pre-activated by incubation at 37° C. for 24 h with 1 mM p-aminophenylmercuric acetate. The quenched fluorogenic peptide substrate qf-Aβ(1-7)C (0.4 μL of the 1 mM stock in DMSO) was mixed with different concentrations of enzyme solution (final peptide concentration 2 μM) on a 96-well plate. The final volume of the reaction solution was kept as 200 μL. The mixture was incubated in the dark for 1, 2, 3, or 4 h at 37° C., and then the fluorescence was measured with excitation at 360 nm and emission at 465 nm on a Paradigm™ Detection Platform (Beckman Coulter, USA) (FIG. 5).

In assay [3] the target is T2, angiotensin-converting enzyme (ACE) (Homo sapiens, UniProt P12821).
T2 construct: purchased R&D Systems (USA)
T2 sequence (P12821 30-1306): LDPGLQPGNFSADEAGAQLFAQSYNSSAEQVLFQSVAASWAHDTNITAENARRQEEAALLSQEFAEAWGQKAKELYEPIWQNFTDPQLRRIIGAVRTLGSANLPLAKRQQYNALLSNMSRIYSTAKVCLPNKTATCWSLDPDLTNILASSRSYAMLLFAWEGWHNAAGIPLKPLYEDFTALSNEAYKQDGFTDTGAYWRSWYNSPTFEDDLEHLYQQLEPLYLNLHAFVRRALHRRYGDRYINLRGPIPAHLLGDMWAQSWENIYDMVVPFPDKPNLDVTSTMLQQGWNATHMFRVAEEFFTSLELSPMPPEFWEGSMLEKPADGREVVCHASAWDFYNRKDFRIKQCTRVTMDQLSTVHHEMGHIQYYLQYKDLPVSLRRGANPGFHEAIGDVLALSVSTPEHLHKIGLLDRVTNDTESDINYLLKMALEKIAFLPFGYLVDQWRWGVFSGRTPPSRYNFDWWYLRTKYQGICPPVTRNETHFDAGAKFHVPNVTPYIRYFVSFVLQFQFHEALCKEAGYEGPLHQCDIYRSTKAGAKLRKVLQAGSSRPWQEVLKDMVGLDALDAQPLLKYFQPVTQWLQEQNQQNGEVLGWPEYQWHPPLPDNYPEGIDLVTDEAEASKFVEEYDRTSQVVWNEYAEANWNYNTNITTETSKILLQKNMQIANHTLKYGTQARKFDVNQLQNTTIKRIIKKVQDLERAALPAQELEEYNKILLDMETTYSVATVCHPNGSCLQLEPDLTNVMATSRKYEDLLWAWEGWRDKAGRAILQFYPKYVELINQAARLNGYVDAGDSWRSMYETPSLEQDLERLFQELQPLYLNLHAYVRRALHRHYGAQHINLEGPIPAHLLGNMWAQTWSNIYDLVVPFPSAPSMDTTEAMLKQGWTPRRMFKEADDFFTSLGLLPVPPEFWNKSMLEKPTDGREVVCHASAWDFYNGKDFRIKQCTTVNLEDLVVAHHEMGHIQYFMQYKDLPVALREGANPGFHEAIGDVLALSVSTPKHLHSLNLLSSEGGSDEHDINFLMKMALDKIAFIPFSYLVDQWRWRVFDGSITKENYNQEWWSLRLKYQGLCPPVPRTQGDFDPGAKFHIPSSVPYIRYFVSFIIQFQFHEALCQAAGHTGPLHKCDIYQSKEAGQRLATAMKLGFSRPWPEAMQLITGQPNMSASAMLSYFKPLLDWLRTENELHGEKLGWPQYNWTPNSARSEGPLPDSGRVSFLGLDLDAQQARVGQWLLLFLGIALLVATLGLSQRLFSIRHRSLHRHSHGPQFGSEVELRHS
In words: Fluorogenic enzyme assay, peptide substrate digested by ACE. The class given is biochemical. Particulars: 2 μM substrate. The method, then: as §1
One commercially available quenched fluorogenic peptide substrate, Dansyl-^DAGF(pNO2)G, was tested for comparison. The fluorescence of dansyl is quenched by the presence of nitrophenyl group. Digestion was monitored by the fluorescence increase of dansyl at 562 nm when excited at 342 nm. […] This substrate also has enzyme specificity. It is sensitive to NEP and ACE (FIG. 8B). […]

The target in assay [4] is T3, insulin-degrading enzyme (IDE) (Homo sapiens, UniProt P14735).
T3 construct: purchased R&D Systems (USA)
In words: Fluorogenic enzyme assay, peptide substrate digested by IDE. Type of assay: biochemical. The method, then:
as §1
The assay system was sensitive enough to detect as low as 0.10 nM NEP. […]
(§2) One commercially available quenched fluorogenic peptide substrate, Dansyl-^DAGF(pNO2)G, was tested for comparison. The fluorescence of dansyl is quenched by the presence of nitrophenyl group. Digestion was monitored by the fluorescence increase of dansyl at 562 nm when excited at 342 nm. […]

For assay [5], the target named is T4, recombinant human NEP (Homo sapiens, UniProt P08473).
T4 construct: purchased R&D Systems (USA)
T4 sequence (P08473 whole entry): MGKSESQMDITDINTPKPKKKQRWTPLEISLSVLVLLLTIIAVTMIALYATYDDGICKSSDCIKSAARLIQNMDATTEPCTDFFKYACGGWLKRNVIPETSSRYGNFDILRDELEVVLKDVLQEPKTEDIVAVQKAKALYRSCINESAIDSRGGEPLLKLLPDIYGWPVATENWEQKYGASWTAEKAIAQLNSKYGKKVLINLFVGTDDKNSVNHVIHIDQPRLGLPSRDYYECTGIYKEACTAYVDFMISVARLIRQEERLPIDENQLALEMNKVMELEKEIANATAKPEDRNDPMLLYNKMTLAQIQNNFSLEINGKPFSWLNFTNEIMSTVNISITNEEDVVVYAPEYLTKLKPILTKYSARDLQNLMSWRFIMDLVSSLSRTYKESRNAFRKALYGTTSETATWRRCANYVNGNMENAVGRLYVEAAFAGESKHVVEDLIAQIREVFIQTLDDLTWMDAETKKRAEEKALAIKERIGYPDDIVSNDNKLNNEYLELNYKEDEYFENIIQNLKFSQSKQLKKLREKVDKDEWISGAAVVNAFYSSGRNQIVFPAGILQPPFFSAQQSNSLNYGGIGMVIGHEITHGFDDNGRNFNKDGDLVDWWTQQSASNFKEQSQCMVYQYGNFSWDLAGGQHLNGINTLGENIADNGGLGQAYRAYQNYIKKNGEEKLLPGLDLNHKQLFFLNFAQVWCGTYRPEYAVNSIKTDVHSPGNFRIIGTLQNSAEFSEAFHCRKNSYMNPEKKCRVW
The assay can be described thus: Fluorogenic enzyme assay, peptide substrate digested by NEP. The class given is biochemical. The method, then:
To determine the optimal reaction conditions, 0.92 nM NEP was mixed with different concentrations of qf-Aβ(1-7)C, then, after incubation for 1, 2, 3, or 4 h at 37° C., the peptide-degrading activity of NEP was measured by recording fluorescence emission at 465 nm. The fluorescence intensity increased at least 40-fold with the degradation of the quenched fluorogenic peptide. […] Incubation for 1 h was sufficient for detection. At higher substrate concentrations, the fluorescence intensity was much larger, but the error increased. To test whether the sensitivity of NEP detection was increased when a higher substrate concentration was used, 1.84 μM qf-Aβ(1-7)C was mixed with different concentrations of NEP and reacted at 37° C. for 1, 2, 3, or 4 h and the fluorescence emission at 465 nm measured (FIG. 4). […] The substrate concentration of 1.84 μM or more was therefore used in the following studies.
To determine the optimal substrate concentration in the fluorogenic enzyme assay, NEP (0.5 mg/mL) and substrate peptide qf-Aβ(1-7)C (1 mM) were mixed in 50 mM Tris-HCl (pH 7.5), 25 mM NaCl, 5 μM ZnCl2 to a final NEP concentration of 0.92 nM and peptide concentrations of 0.46, 0.92, 1.84, 3.68, or 7.36 μM and placed on a 96-well plate (Corning, USA). The final volume of the reaction solution was kept as 200 μL. The enzyme reaction was performed in the dark at 37° C. and the fluorescence was measured at 1, 2, 3, and 4 h with excitation at 360 nm and emission at 465 nm on a Paradigm™ Detection Platform (Beckman Coulter, USA) (FIG. 3). […] The enzyme reaction was performed in the dark at 37° C. and the fluorescence was measured at 1, 2, 3, and 4 h. […]
as §2

Assay [6] has as its target T5, MMP-3 (Homo sapiens, UniProt P08254).
T5 construct: purchased R&D Systems (USA)
The assay can be described thus: Fluorogenic enzyme assay, peptide substrate digested by MMP-3. The class given is biochemical. The note with it: 2 μM substrate. The method, then:
as §1

For assay [7], the target named is T6, endothelin-converting enzyme 1 (ECE-1) (Homo sapiens, UniProt P42892).
T6 construct: purchased R&D Systems (USA)
T6 sequence (P42892 1-770): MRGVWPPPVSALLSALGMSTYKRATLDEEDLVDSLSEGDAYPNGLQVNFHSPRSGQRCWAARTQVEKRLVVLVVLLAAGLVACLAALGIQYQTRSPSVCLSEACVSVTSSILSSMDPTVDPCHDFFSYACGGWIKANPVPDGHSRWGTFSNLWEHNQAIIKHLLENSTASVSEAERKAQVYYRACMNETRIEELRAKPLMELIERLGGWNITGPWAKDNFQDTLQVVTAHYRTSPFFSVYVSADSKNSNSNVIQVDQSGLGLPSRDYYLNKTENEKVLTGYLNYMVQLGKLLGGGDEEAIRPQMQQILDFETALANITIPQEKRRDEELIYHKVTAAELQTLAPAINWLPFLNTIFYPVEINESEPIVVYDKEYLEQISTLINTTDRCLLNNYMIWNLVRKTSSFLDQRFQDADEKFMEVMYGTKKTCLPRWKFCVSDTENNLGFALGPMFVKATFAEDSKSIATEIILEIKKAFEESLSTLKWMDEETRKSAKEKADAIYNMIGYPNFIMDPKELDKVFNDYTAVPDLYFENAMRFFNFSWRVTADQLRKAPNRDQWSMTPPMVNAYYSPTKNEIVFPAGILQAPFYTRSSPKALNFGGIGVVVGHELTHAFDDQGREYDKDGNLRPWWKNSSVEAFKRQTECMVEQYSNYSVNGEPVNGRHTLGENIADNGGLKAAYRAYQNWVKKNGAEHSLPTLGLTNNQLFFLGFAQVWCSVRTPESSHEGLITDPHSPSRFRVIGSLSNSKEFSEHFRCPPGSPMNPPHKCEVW
In words: Fluorogenic enzyme assay, peptide substrate digested by ECE-1. The class given is biochemical. Particulars: 2 μM substrate, pH 7.5, 37° C. The method, then:
as §1

Assay [8] deals with T7, Human plasmin (Homo sapiens, UniProt P00747).
T7 construct: Human plasmin (1 mM) was purchased from Sigma (USA); purchased Sigma (USA)
T7 sequence (P00747 581-810 limits assumed): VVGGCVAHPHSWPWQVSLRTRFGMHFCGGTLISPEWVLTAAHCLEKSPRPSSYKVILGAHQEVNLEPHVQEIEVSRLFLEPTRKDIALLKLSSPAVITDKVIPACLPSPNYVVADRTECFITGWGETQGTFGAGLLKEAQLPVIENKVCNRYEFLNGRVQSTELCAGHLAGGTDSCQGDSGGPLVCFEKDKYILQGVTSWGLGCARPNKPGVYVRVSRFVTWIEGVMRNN
T7 sequence (P00747 97-580 partner limits assumed): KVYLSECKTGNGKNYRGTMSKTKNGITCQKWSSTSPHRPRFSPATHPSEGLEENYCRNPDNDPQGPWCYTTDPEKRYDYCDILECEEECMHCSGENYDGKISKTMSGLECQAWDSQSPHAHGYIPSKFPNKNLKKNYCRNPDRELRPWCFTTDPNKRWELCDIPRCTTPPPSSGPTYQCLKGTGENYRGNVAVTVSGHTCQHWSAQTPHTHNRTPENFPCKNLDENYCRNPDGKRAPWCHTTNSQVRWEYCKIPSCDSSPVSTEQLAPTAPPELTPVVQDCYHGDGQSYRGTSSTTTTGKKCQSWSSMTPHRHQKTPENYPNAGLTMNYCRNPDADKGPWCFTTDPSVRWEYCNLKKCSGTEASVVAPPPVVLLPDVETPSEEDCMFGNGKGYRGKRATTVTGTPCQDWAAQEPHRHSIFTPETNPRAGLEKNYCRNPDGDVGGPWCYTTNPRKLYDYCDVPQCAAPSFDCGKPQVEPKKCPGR
The assay can be described thus: Fluorogenic enzyme assay, peptide substrate digested by plasmin. Type of assay: biochemical. Particulars: 2 μM substrate. The method, then:
as §1

“Also recorded” adds a separate entry of the source. Primed or numbered codes have the meaning given here. *: point of attachment. Alexa‑350 = fluorescent label on the Cys side chain (double-labeled qf-Aβ(1-7)C); Dabcyl′ = CN(C)c1ccc(/N=N/c2ccc(C(=O)*)cc2)cc1

T1 sequence (P14780 107-707 limits assumed): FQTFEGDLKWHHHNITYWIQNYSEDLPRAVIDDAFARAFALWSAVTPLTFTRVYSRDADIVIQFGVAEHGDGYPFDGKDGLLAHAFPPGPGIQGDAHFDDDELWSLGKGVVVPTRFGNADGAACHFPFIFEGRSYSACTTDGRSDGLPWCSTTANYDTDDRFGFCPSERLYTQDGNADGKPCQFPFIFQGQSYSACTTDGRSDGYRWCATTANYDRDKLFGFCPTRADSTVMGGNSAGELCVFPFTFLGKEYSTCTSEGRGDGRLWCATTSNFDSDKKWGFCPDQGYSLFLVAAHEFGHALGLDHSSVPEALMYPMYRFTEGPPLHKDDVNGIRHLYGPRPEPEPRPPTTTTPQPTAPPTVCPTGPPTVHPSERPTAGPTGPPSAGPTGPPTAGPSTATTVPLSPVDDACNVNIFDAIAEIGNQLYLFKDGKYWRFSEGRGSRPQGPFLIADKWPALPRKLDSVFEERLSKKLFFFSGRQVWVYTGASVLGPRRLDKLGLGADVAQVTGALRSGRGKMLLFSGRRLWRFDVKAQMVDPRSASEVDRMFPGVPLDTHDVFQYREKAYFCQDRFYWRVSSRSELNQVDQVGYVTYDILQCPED
T5 sequence (P08254 100-477): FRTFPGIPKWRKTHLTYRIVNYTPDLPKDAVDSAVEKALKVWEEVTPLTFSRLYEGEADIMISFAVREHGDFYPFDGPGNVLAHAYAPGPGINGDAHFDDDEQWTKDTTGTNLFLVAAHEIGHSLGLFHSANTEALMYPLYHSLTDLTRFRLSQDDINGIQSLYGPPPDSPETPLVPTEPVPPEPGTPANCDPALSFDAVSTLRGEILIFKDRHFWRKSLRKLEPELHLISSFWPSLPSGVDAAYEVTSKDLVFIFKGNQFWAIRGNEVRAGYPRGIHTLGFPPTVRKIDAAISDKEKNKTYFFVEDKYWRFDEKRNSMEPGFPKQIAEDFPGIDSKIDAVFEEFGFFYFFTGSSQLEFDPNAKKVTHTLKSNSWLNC

Regarding `COc1cc(C=CC(=O)CC(=O)C=Cc2ccc(O)c(O)c2)ccc1O` [Compound 7, 1-(3,4-Dihydroxyphenyl)-7-(3-methoxy-4-hydroxyphenyl)-1,6-heptadiene-3,5-dione], the “NEP activity of human SHSY5Y cells treated with compound (effect in words)” value (“NEP activity … (effect in words)” for short) in assay [1] is given as “largely enhanced NEP activity; also recorded: large enhancements of NEP activity”.

On to `O=C(C=Cc1ccc(O)c(O)c1)CC(=O)C=Cc1ccc(O)c(O)c1` [Compound 8, 1,7-Bis(3,4-dihydroxyphenyl)-1,6-heptadiene-3,5-dione], for which the “NEP activity … (effect in words)” value in assay [1] was “largely enhanced NEP activity; also recorded: large enhancements of NEP activity”.

Take `COc1cc(C=CC(=O)CC(=O)C=Cc2cc(O)c(O)c(OC)c2)cc(O)c1O` [Compound 10, 1,7-Bis(3,4-dihydroxy-5-methoxyphenyl)-1,6-heptadiene-3,5-dione]: the “NEP activity … (effect in words)” value in assay [1] is “largely enhanced NEP activity; also recorded: large enhancements of NEP activity”.

In the case of `COc1ccc2ccccc2c1C=CC(=O)CC(=O)C=Cc1c(OC)ccc2ccccc12` [Compound 14, 1,7-Bis(2-methoxy-1-naphthyl)-1,6-heptadiene-3,5-dione], in assay [1], the “NEP activity … (effect in words)” value was “decreased NEP activity” and the “decrease of NEP activity” value is listed as approximately 20%.

In the case of `O=C(C=Cc1ccc(O)cc1)CC(=O)C=Cc1ccc(O)c(O)c1` [Compound 20, 1-(3,4-dihydroxyphenyl)-7-(4-hydroxyphenyl)-1,6-heptadiene-3,5-dione], in assay [1], the “NEP activity … (effect in words)” value was “largely enhanced NEP activity; also recorded: large enhancements of NEP activity”.

Turning to “qf-Aβ(1-7)C: Peptide DAEFRHDC, Aβ residues 1-7 plus C-terminal Cys, with Alexa-350 on the Cys side-chain and Dabcyl quencher at the N-terminus ({Dabcyl′}-DAEFRHDC(Alexa‑350)-OH)”, in assay [2], the “sensitivity of the system to MMP-9” value is listed as “insensitive; also recorded: much less sensitive”. Further, the “fluorescence increase after digestion with ACE” value in assay [3] (1-h digestion) was “no significant fluorescence increase”. In addition, the “fluorescence increase after incubation with ACE” value in assay [3] (3 h) was “very weak fluorescence increase”. Besides, the “cleavage of the quenched fluorogenic peptide by IDE” value in assay [4] (2 μM substrate, pH 7.5, 37° C.) was “effective”. In addition, in assay [4] (37° C., 1 h), the “lowest IDE concentration detected” value amounted to 0.2 nM. In addition, the “lowest substrate concentration at which 0.92 nM NEP could be detected” value in assay [5] (0.92 nM NEP, 37° C.) amounted to 0.46 µM. The “fluorescence intensity increase with degradation of the quenched fluorogenic peptide” value in assay [5] (0.92 nM NEP, 37° C., emission at 465 nm) is “at least 40 fold”. The “cleavage of the quenched fluorogenic peptide by NEP” value in assay [5] (2 μM substrate, pH 7.5, 37° C.) is on record as “effective”. Also, in assay [6] (1-h digestion), the “fluorescence increase after digestion with MMP-3” value is reported as “no significant fluorescence increase”. Further, the “fluorescence increase after incubation with MMP-3” value in assay [6] (3 h) was “very weak fluorescence increase”. In addition, in assay [7], the “sensitivity of the system to ECE-1” value is recorded as “insensitive; also recorded: much less sensitive”. For the same compound, in assay [8] (1-h digestion), the “fluorescence increase after digestion with plasmin” value was “no significant fluorescence increase”. In assay [8] (pH 7.5, 37° C.), the “sensitivity of the system to plasmin” value is on record as “much less sensitive”.
